Reference: US20260327578A1, “TRANSGLUTAMINASES AND USES THEREOF” (CURIE CO. INC., priority 2023, published 2026)
Residue numbers refer to the chain shown, from its start. Names and notes keep the numbering of the source.

B1: A8: Tgase variant S2P D14W Q50S Q74A K91H Q124L K151R K152R N282M G283A S299A relative to SEQ ID NO: 2 (protein, UniProt P81453 77-407, looked up, variant S2P D14W Q50S Q74A K91H Q124L K151R K152R N282M G283A S299A)
Protein-glutamine …: DPDDRVTPPAEPLWRMPDPYRPSYGRAETVVNNYIRKWQQVYSHRDGRKSQMTEEQREWLSYGCVGVTWVNSGAYPTNRLAFASFDEDRFHNELKNGRPRSGETRAEFEGRVAKESFDEEKGFLRAREVASVMNRALENAHDESAYLDNLRRELANGNDALRNEDARSPFYSALRNTPSFKERNGGNHDPSRMKAVIYSKHFWSGQDRSSSADKRKYGDPDAFRPAPGTGLVDMSRDRNIPRSPTSPGEGFVNFDYGWFGAQTEADADKTVWTHGNHYHAPMASLGAMHVYESKFRNWAEGYSDFDRGAYVITFIPKSWNTAPDKVKQGWP
B2: A12: Tgase variant S2P R15T Q50S Q74A K91H Q124L K151R K152R N282M G283A H289I relative to SEQ ID NO: 2 (protein, UniProt P81453 77-407, looked up, variant S2P R15T Q50S Q74A K91H Q124L K151R K152R N282M G283A H289I)
Protein-glutamine …: B1 Protein-glutamine … with W14D, R15T, H289I, A299S
B3: A7: Tgase variant S2P Q50S Q74A K91H Q124L K151R K152R N282M G283A S299V relative to SEQ ID NO: 2 (protein, UniProt P81453 77-407, looked up, variant S2P Q50S Q74A K91H Q124L K151R K152R N282M G283A S299V)
Protein-glutamine …: B1 Protein-glutamine … with W14D, A299V
B4: A5: Tgase variant S2P Q50S Q74A K91H Q124L K151R K152R N282D S284A H289I S299E relative to SEQ ID NO: 2 (protein, UniProt P81453 77-407, looked up, variant S2P Q50S Q74A K91H Q124L K151R K152R N282D S284A H289I S299E)
Protein-glutamine …: B1 Protein-glutamine … with W14D, M282D, A283G, S284A, H289I, A299E
B5: A4: Tgase variant S2P Q50S Q74A K91H Q124L K151R K152R N282Q S284A H289I relative to SEQ ID NO: 2 (protein, UniProt P81453 77-407, looked up, variant S2P Q50S Q74A K91H Q124L K151R K152R N282Q S284A H289I)
Protein-glutamine …: B1 Protein-glutamine … with W14D, M282Q, A283G, S284A, H289I, A299S
B6: A10: Tgase variant S2P A10T Q50S Q74A K91H Q124L S131I K151R K152R N282M G283A S299V relative to SEQ ID NO: 2 (protein, UniProt P81453 77-407, looked up, variant S2P A10T Q50S Q74A K91H Q124L S131I K151R K152R N282M G283A S299V)
Protein-glutamine …: B1 Protein-glutamine … with A10T, W14D, S131I, A299V
B7: A6: Tgase variant S2P D14W Q50S Q74A K91H Q124L K151R K152R A166W N282M G283A S299V relative to SEQ ID NO: 2 (protein, UniProt P81453 77-407, looked up, variant S2P D14W Q50S Q74A K91H Q124L K151R K152R A166W N282M G283A S299V)
Protein-glutamine …: B1 Protein-glutamine … with A166W, A299V
B8: A9: Tgase variant S2P Q50S Q74A K91H K95E Q124L K151R K152R N282M G283A S299V relative to SEQ ID NO: 2 (protein, UniProt P81453 77-407, looked up, variant S2P Q50S Q74A K91H K95E Q124L K151R K152R N282M G283A S299V)
Protein-glutamine …: B1 Protein-glutamine … with W14D, K95E, A299V
B9: A11: Tgase variant S2P D14W Q50S Q74A K91H Q124L S131I K151R K152R N282M G283A S299V relative to SEQ ID NO: 2 (protein, UniProt P81453 77-407, looked up, variant S2P D14W Q50S Q74A K91H Q124L S131I K151R K152R N282M G283A S299V)
Protein-glutamine …: B1 Protein-glutamine … with S131I, A299V
B10: S17: Tgase variant S2P Q50S Q74A K91H Q124N K151R K152R relative to SEQ ID NO: 2 (protein, UniProt P81453 77-407, looked up, variant S2P Q50S Q74A K91H Q124N K151R K152R)
Protein-glutamine …: B1 Protein-glutamine … with W14D, L124N, M282N, A283G, A299S
B11: S19: Tgase variant S2P K49H Q50A Q74C Q124N K151R K152R relative to SEQ ID NO: 2 (protein, UniProt P81453 77-407, looked up, variant S2P K49H Q50A Q74C Q124N K151R K152R)
Protein-glutamine …: B1 Protein-glutamine … with W14D, K49H, S50A, A74C, H91K, L124N, M282N, A283G, A299S
B12: S3: Tgase variant S2P Q50A relative to SEQ ID NO: 2 (protein, UniProt P81453 77-407, looked up, variant S2P Q50A)
Protein-glutamine …: B1 Protein-glutamine … with W14D, S50A, A74Q, H91K, L124Q, R151K, R152K, M282N, A283G, A299S
B13: S4: Tgase variant S2P Q51P relative to SEQ ID NO: 2 (protein, UniProt P81453 77-407, looked up, variant S2P Q51P)
Protein-glutamine …: DPDDRVTPPAEPLDRMPDPYRPSYGRAETVVNNYIRKWQQVYSHRDGRKQPMTEEQREWLSYGCVGVTWVNSGQYPTNRLAFASFDEDRFKNELKNGRPRSGETRAEFEGRVAKESFDEEKGFQRAREVASVMNRALENAHDESAYLDNLKKELANGNDALRNEDARSPFYSALRNTPSFKERNGGNHDPSRMKAVIYSKHFWSGQDRSSSADKRKYGDPDAFRPAPGTGLVDMSRDRNIPRSPTSPGEGFVNFDYGWFGAQTEADADKTVWTHGNHYHAPNGSLGAMHVYESKFRNWSEGYSDFDRGAYVITFIPKSWNTAPDKVKQGWP
B14: S18: Tgase variant S2P K49H Q50A Q74C Q124L K151R K152R relative to SEQ ID NO: 2 (protein, UniProt P81453 77-407, looked up, variant S2P K49H Q50A Q74C Q124L K151R K152R)
Protein-glutamine …: B13 Protein-glutamine … with K49H, Q50A, P51Q, Q74C, Q124L, K151R, K152R
B15: S1: Tgase variant S2P Q50H relative to SEQ ID NO: 2 (protein, UniProt P81453 77-407, looked up, variant S2P Q50H)
Protein-glutamine …: B13 Protein-glutamine … with Q50H, P51Q
B16: S20: Tgase variant S2P Q51A Q74T K95I Q124L K151R K152R relative to SEQ ID NO: 2 (protein, UniProt P81453 77-407, looked up, variant S2P Q51A Q74T K95I Q124L K151R K152R)
Protein-glutamine …: B13 Protein-glutamine … with P51A, Q74T, K95I, Q124L, K151R, K152R
B17: S2: Tgase variant S2P Q74V relative to SEQ ID NO: 2 (protein, UniProt P81453 77-407, looked up, variant S2P Q74V)
Protein-glutamine …: B13 Protein-glutamine … with P51Q, Q74V
B18: S21: Tgase variant S2P Q50T Q51A Q74M K95E Q124L K151R K152R relative to SEQ ID NO: 2 (protein, UniProt P81453 77-407, looked up, variant S2P Q50T Q51A Q74M K95E Q124L K151R K152R)
Protein-glutamine …: B13 Protein-glutamine … with Q50T, P51A, Q74M, K95E, Q124L, K151R, K152R

Test system: N,N-dimethylcasein
Test: Rate of product formation over 60 minutes (protein functionalization assay)
Assay type: biochemical
Parameters: key: −: a reduction in activity; +: an improvement between 1.2 and 2-fold; ++: an improvement between 2 and 5-fold; +++: an improvement greater than 5-fold
Settings: improvement relative to wild-type Tgase (SEQ ID NO: 2); initial rate over 60 min
Method: (§1) Enzymatic “productivity” is a measure of product formation or substrate disappearance over time, at a prescribed temperature under specified reaction conditions. It is the measure both the durability and reaction yield of the enzyme variant. In this instance, productivity is defined as total product formed over 24-hours at a constant substrate concentration when the enzyme is the rate limiting factor. The time is defined as 24 hours, which represents approaching or surpassing burnout, denaturation, or self-reaction of the enzyme variant. In other words, variants with higher productivity deliver a higher product yield in 24-hours than variants with lower productivity produce in the same period of time. “Rate” refers to the initial rate for an enzymatic reaction, at a prescribed temperature under specified reaction conditions. The enzyme produces product at an initial rate that is approximately linear for a short period after the start of the reaction. When concentrations of enzyme and substrate are the same across the sample set, initial rates between enzyme variants can be compared. In this instance, the linear range for production of product occurs in one hour. Enzyme variants with faster initial rates deliver a higher product yield in one hour than variants with slower initial rates produce at the same time-period. In some cases, improvements to initial rates also deliver a more productive variant. In some cases, improvements to initial rates result in faster decay of the enzyme variant reducing overall enzymatic productivity. Productivity and rate may be assessed as described in Example 2.
(§2) Table 6 depicts variants of Streptomyces mobaraensis Tgase and improvement to productivity and/or rate relative to wild-type Tgase (SEQ ID NO. 2) as determined in Example 3. Numbering of amino acid positions is in reference to the mature S. mobaraensis Tgase sequence depicted in SEQ ID NO. 2. A “−” indicates a reduction in activity. A “+” indicates an improvement between 1.2 and 2-fold. A “++” indicates an improvement between 2 and 5-fold. A “+++” indicates an improvement greater than 5-fold.
Rate was assessed by measuring the rate of product formation over 60 minutes of incubation using a kinetic method to take scans every 60 seconds to determine product formation, using reaction conditions as described in Example 4B. The enzyme produces product at an initial rate that is approximately linear for the first one hour of the reaction. The concentrations of enzyme and substrate are the same across the sample set for each enzyme variant. Enzyme variants with faster initial rates deliver a higher product yield in one hour than variants with slower initial rates produce at the same time-period.
(§3) Protein functionalization by Tgase variants was determined by the fluorogenic labeling of casein using monodansylcadaverine (e.g., a commercially available kit such as the Transglutaminase Fluorogenic Activity Assay Kit, T036, Zedira, Germany). Tgase activity was monitored by measuring fluorescence (excitation wavelength 332 nm; emission wavelength 500 nm) using a BioTek Synergy H1 microplate reader. Transglutaminase-catalyzed covalent coupling (crosslinking) of monodansylcadaverine with N,N-dimethylcasein produces a product that causes a shift in intensity and wavelength of fluorescence of the dansyl group now linked to the casein. The relative transglutaminase activity is shown by increase of fluorescence intensity over time. Enzyme variant loading was optimized based on expression levels, ensuring enzyme was the rate limiting factor. Briefly, cell-free reactions (set up as described in Example 2A) were first diluted 10-fold using phosphate buffer, pH 7.4, and a 5 microliter aliquot was analyzed.

| Molecule | Rate |
| --- | --- |
| B1 | ++ (an improvement between 2 and 5-fold) |
| B2 | + (an improvement between 1.2 and 2-fold) |
| B3 | + (an improvement between 1.2 and 2-fold) |
| B4 | − |
| B5 | − |
| B6 | + (an improvement between 1.2 and 2-fold) |
| B7 | +++ (an improvement greater than 5-fold) |
| B8 | + (an improvement between 1.2 and 2-fold) |
| B9 | + (an improvement between 1.2 and 2-fold) |

Test system: N,N-dimethylcasein
Test: Productivity: total product formed after 24 hours (protein functionalization assay)
Assay type: biochemical
Settings: improvement relative to wild-type Tgase (SEQ ID NO: 2); total product after 24 h
Method: as §1, §2
To evaluate productivity, total product formed was measured after 24-hours of incubation, using the assay described in Example 4B. The time is defined as 24 hours which represents approaching or surpassing burnout, denaturation, or self-reaction of the enzyme variant.
as §3

| Molecule | Productivity |
| --- | --- |
| B1 | + (an improvement between 1.2 and 2-fold) |
| B2 | + (an improvement between 1.2 and 2-fold) |
| B3 | + (an improvement between 1.2 and 2-fold) |
| B4 | + (an improvement between 1.2 and 2-fold) |
| B5 | + (an improvement between 1.2 and 2-fold) |
| B6 | + (an improvement between 1.2 and 2-fold) |
| B7 | ++ (an improvement between 2 and 5-fold) |
| B8 | + (an improvement between 1.2 and 2-fold) |
| B9 | + (an improvement between 1.2 and 2-fold) |

Test system: N,N-dimethylcasein
Test: Chemostability: residual Tgase activity after 24 hour incubation at 20-30 °C, normalized to wild-type
Assay type: biochemical
Settings: improvement relative to wild-type mature Tgase (SEQ ID NO: 2); residual activity after 24 h at 20-30 °C in cell-free extract
Method: Table 5 depicts variants of Streptomyces mobaraensis Tgase and improvement to stability relative to wild-type mature Tgase (SEQ ID NO. 2) as determined in Example 3. Numbering of amino acid positions is in reference to the mature S. mobaraensis Tgase sequence depicted in SEQ ID NO. 2. A “+” indicates an improvement between 1.2 and 2-fold. A “++” indicates an improvement greater than 2-fold.
To evaluate chemostability, Tgase samples in cell-free extract were assayed for activity, using the assay described in Example 4B, immediately after expression and again following a 24 hour incubation at 20-30° C. Mature Tgase variant residual activity was normalized to the residual activity of the wild-type and results are depicted in Table 5.
as §3

| Molecule | Stability |
| --- | --- |
| B10 | + (an improvement between 1.2 and 2-fold) |
| B11 | + (an improvement between 1.2 and 2-fold) |
| B12 | ++ (an improvement greater than 2-fold) |
| B13 | + (an improvement between 1.2 and 2-fold) |
| B14 | + (an improvement between 1.2 and 2-fold) |
| B15 | ++ (an improvement greater than 2-fold) |
| B16 | + (an improvement between 1.2 and 2-fold) |
| B17 | ++ (an improvement greater than 2-fold) |
| B18 | + (an improvement between 1.2 and 2-fold) |
